From paper PMC4168798

Columns and labels:
Assay in all cases: fluorescence polarisation
[1] = biological target: Mcl-1 (c-myc-tagged, without the N-terminal domain and the C-terminal trans-membrane region) (human)
[2] = biological target: Bcl-xL (c-myc-tagged, without the C-terminal trans-membrane region) (human)
[3] = biological target: Bfl-1 (c-myc-tagged, without the C-terminal trans-membrane region) (human)
[4] = biological target: Bcl-2 (c-myc-tagged, without the C-terminal trans-membrane region) (human)
[5] = biological target: Bcl-w (c-myc-tagged, without the C-terminal trans-membrane region) (human)
Bcl-w (c-myc-tagged, without the C-terminal trans-membrane region) (human), sequence (Q92843 1-164): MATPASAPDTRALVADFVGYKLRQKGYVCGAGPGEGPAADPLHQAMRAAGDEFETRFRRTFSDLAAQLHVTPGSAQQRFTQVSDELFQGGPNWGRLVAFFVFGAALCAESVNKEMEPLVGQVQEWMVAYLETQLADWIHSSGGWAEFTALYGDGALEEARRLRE

Row | Kd [1] | Kd [2] | Kd [3] | Kd [4] | Kd [5] | Substance
1 | < 1 nM | 110 nM | 7.9 nM | 150 nM | – | Bim_A2eT_F4aI, N-terminal fluorescein (peptide)
2 | – | – | – | – | 16 nM | Bim_A2eT_F4aI, N-terminal fluorescein (peptide; other documents disagree on this pair)
3 | – | – | – | – | 260 nM | Bim_A2eT_I2dM, N-terminal fluorescein (peptide; other documents disagree on this pair)
4 | < 1 nM | 7.6 nM | 120 nM | 37 nM | – | Bim_A2eT_I3dL, N-terminal fluorescein (peptide)
5 | – | – | – | – | 12 nM | Bim_A2eT_I3dL, N-terminal fluorescein (peptide; other documents disagree on this pair)

The remaining lines, values behind:

Row | Substance | Kd [1] | Kd [2] | Kd [3] | Kd [4] | Kd [5]
6 | Bim 23-mer, N-terminal fluorescein (peptide) | < 1 nM | 2.6 nM | < 1 nM | – | –
7 | Bim_A2eT, N-terminal fluorescein (peptide) | < 1 nM | 17 nM | 31 nM | 43 nM | –
8 | Bim_A2eT, N-terminal fluorescein (peptide; other documents disagree on this pair) | – | – | – | – | 39 nM
9 | Bim_A2eT_E2gG, N-terminal fluorescein (peptide) | 1.6 nM | 37 nM | – | 150 nM | –
10 | Bim_A2eT_E2gG, N-terminal fluorescein (peptide; other documents disagree on this pair) | – | – | – | – | 94 nM
11 | Bim_A2eT_I2dM, N-terminal fluorescein (peptide) | < 1 nM | 83 nM | 150 nM | 210 nM | –
